Publication PMC3159451

B1: Thy104Gua (dsDNA)
DNA 1: GGAGCGGCTC
DNA 2: GAGCCGCTCC
modifications: 5-methyl-C at position 5 of both strands
B2: Inverted (dsDNA)
DNA 1: GGACCGACTC
DNA 2: GAGTCGGTCC
modifications: 5-methyl-C at position 5 of both strands
B3: rho-globin mCpG WT 10 bp (dsDNA)
DNA 1: GGATCGGCTC
DNA 2: GAGCCGATCC
modifications: 5-methyl-C at position 5 of both strands (mC105, mC115)
B4: Gua107Thy (dsDNA)
DNA 1: GGATCGTCTC
DNA 2: GAGACGATCC
modifications: 5-methyl-C at position 5 of both strands

What was measured:
Assay in all cases: SPR
[1] = target: cMBD2 MBD WT (Gallus gallus (chicken), UniProt Q5EFL0 2-71)
[2] = target: cMBD2 MBD R46C (Gallus gallus (chicken), UniProt Q5EFL0 2-71, R45C)
[3] = target: cMBD2 MBD K32A (Gallus gallus (chicken), UniProt Q5EFL0 2-71, K31A)
[4] = target: cMBD2 MBD R67M (Gallus gallus (chicken), UniProt Q5EFL0 2-71, R66M)
[5] = target: cMBD2 MBD Y36F (Gallus gallus (chicken), UniProt Q5EFL0 2-71, Y35F)
[6] = target: cMBD2 MBD K19W (Gallus gallus (chicken), UniProt Q5EFL0 2-71, K18W)

Binder | Kd [1] | Kd [2] | Kd [3] | Kd [4] | Kd [5] | Kd [6]
B1 | 2.2 ± 0.1 µM | – | – | – | – | –
B2 | 2.3 ± 0.5 µM | – | – | – | – | –
B3 | 2.1 ± 0.1 µM | 590 ± 71 µM | 291 ± 19 µM | 197 ± 17 µM | 109 ± 3 µM | 135 ± 17 µM
B4 | 29 ± 2 µM | – | – | – | – | –
